In patent publication US20220105163A1 (UNITED BIOMEDICAL, published 2022):

Legend:
[1] = biological target: T1, Recombinant His-tagged human IL-6Rα (human, UniProt P08887 20-365, limits assumed); test: competition ELISA: inhibition of IL-6 binding to coated IL-6Rα (cis-binding)
T1 construct: Bought from GenScript; also called sIL-6Rα; not shown: His tag
T1 sequence (looked up): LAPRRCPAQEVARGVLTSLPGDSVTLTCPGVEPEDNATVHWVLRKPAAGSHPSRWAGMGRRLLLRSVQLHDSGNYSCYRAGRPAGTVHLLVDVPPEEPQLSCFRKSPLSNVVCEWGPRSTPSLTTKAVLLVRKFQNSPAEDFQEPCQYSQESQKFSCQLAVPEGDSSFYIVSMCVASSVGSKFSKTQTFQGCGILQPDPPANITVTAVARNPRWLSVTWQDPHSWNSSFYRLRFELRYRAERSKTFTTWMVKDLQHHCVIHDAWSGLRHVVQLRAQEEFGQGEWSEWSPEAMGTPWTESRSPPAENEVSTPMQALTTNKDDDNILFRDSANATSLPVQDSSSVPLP

[2] = biological target: T1, Recombinant His-tagged human IL-6Rα; test: competition ELISA: inhibition of IL-6/IL-6Rα complex binding to coated gp130-Fc (trans-binding)

B1: Tocilizumab (antibody, V domains shown)
VH: QVQLQESGPGLVRPSQTLSLTCTVSGYSITSDHAWSWVRQPPGRGLEWIGYISYSGITTYNPSLKSRVTMLRDTSKNQFSLRLSSVTAADTAVYYCARSLARTTAMDYWGQGSLVTVSS
VL: DIQMTQSPSSLSASVGDRVTITCRASQDISSYLNWYQQKPGKAPKLLIYYTSRLHSGVPSRFSGSGSGTDFTFTISSLQPEDIATYYCQQGNTLPYTFGQGTKVEIKR
- IC50 [1]: 0.935 µg/mL
- IC50 [2]: 0.1 µg/mL
